We go through 21 sequences from the DeepSol protein solubility set.

The nature of this data set: soluble on expression in E. coli; label from the status in PepcDB or PDB records.
As for “MSEITASRPEVVNGHTDVICSTSIRHILAVRKSTLLQIDTLIRQLAEVSAMTESIRGKTALDWAMKQDFRCGCWLMEKPETAMKAITRNLDRELWRDLMQRSGMLSLMDAQTRDTWYRSLEYDNFPEISEANILSTFEQLHQNKDEVFERGVINVFKGLSWDYKTNSPCKFGSKIIVNNLVRWDRWGFHLITGQQTDRLVDLERMLHLFSGKPIPDNRENITIRLDGHIQSVQGKERYEDEMFIIKYFKKGSAHITFKRLELIDRINDIIARYFPSVLSA”, the “soluble on expression in E. coli” value is given as “not soluble”.

Consider “MSEKEIWDKVLEIAQERISNTSYQTFIKDTQLYSLKNDEAIILVSLPFNASWLNQRYSEIMQAIIYDVIGYEVKPHFISEDELASYNNVNTQEVQEPQVQHSSIDDKTWGKEQFNMHNTFDTFVIGPGNRFPHAASLAVAEAPAEAYNPLFIYGGVGLGKTHLMHAIGHHVLSNKPNAKVIYTSSEKFTNEFIKSIRDNETEAFREKYRKIDVLLIDDIQFIQNKEQTQEEFFHTFNELHQNNKQIVISSDRPPKEIAKLEDRLRSRFEWGLIVDITPPDYETRMAILQKKIEEENLDIPPEALNYIANQIQSNIRELEGALTRLLAYSKLQGKPITTELTAEALKDIIQSPKSKKITIQDIQKVVGQYYSVRIEDFSAKKRTKSIAYPRQIAMYLSRELTDFSLPKIGEEFGGRDHTTVIHAHEKIANDIKSDPTFKQEVENLEKEIRNQLEHHHHHH”, for which the “soluble on expression in E. coli” value was “not soluble”.

As for “MSEKTFLVEIGTEELPPKALRSLAESFAANFTAELDNAGLAHGTVQWFAAPRRLALKVANLAEAQPDREIEKRGPAIAQAFDAEGKPSKAAEGWARGCGITVDQAERLTTDKGEWLLYRAHVKGESTEALLPNMVATSLAKLPIPKLMRWGASDVHFVRPVHTVTLLLGDKVIPATILGIQSDRVIRGHRFMGEPEFTIDNADQYPEILRERGKVIADYEERKAKIKADAEEAARKIGGNADLSESLLEEVASLVEWPVVLTAKFEEKFLAVPAEALVYTMKGDQKYFPVYANDGKLLPNFIFVANIESKDPQQIISGNEKVVRPRLADAEFFFNTDRKKRLEDNLPRLQTVLFQQQLGTLRDKTDRIQALAGWIAEQIGADVNHATRAGLLSKCDLMTNMVFEFTDTQGVMGMHYARHDGEAEDVAVALNEQYQPRFAGDDLPSNPVACALAIADKMDTLAGIFGIGQHPKGDKDPFALRRAALGVLRIIVEKNLNLDLQTLTEEAVRLYGDKLTNANVVDDVIDFMLGRFRAWYQDEGYTVDTIQAVLARRPTRPADFDARMKAVSHFRTLDAAAALAAANKRVSNILAKSDEVLSDRVNASTLKEPEEIKLAMQVVVLRDKLEPYFTEGRYQDALVELAELREPVDAFFDKVMVMVDDKELRINRLTMLEKLRELFLRVADISLLQ”, the “soluble on expression in E. coli” value was “soluble”.

On to “MSELHFMSLEELDNELEKDDSGIYFIKDYNDNIIYIGKAFSIKSRVLAHFNSYSNIKEYVHLFNKVAYLIEDSLLKRSLLQVTYMIKYKPVLNKEVQKEFPELYTQYIKQTNKKSMLLEIEEAKEKRDELKNRLVKLVGGKTMFYDIISLLNNGYNYHVLAKVLSIELQTLIIMKEHRNKFPMPHNYKRTIKHQDIMYALSGKKNLSTSRLNT”, for which the “soluble on expression in E. coli” value is reported as “soluble”.

In the case of “MSEPVKLRAHTQAHCKDCSLAPLCLPLSLNTDDMDSLDQIVKRGRPLKKGEFLFRQGDTFESVYAVRSGALKTFNISDNGEEQLTGFHLPSELVGLSGMDAEAYPVSAQALETTSVCEIPFERLDELSVQLPQLRRQLMRVMSREIRDDQQMMLLLSKKTADERIATFLINLSARFRARGFSANQFRLSMSRSEIGNHLGLAVETVSRVFTRFQQNQLVSAEGKEIHILAPIELCALAGGAMQS”, the “soluble on expression in E. coli” value is on record as “soluble”.

Consider “MSEQFVTISQHVRNPQEAAALFGVHDIHLKRIEEELGVSIVTRGETVNVSGTPQQVQLVNELLRHLLIVIRKGAAVSERDVLYAIQLAKKGALDGLVQLYDEEITKNAKGKPIRVKTLGQRYYVAAIEQYDLTFGIGPAGTGKTYLAVVMAVKALKNGSVKRIILTRPAVEAGESLGFLPGDLKEKVDPYLRPLYDALNDVLGAEYTQRLIERGTIEIAPLAYMRGRTLEDAFVILDEAQNTTPAQMKMFLTRLGFGSKMVITGDISQVDLPKGVESGLSVAKRILASIGGIAFVFLEQSDVVRHPLVAKIIDAYDEAGL”, for which the “soluble on expression in E. coli” value is “not soluble”.

Regarding “MSEQKIEVVGKLGSTYGIRGWLRLYSSTEKAESIFDYQPWFLKIKGQWQLIELESWRYHSNDLIVKLKGTEDREAAQLLTNAEIGVDLSVFPKLGEEDYYWHDLINCQVVNLENYTMGVVTELMETGSNDVLVVRANSKDAFGKQERLIPFLYKQVVKRVDLSTKTITVDWDAGFLEHHHHHH”, the “soluble on expression in E. coli” value is reported as “soluble”.

As for “MSEQYTTGVVVTGKVTGIQDYGAFVALDAETQGLVHISEITNGYVKDIHDFLKVGDTVEVKVLSIDEEHRKMSLSLKAAKRKQGRILIPNPSENGFNTLREKLTEWIEESELTK”, the “soluble on expression in E. coli” value was “not soluble”.

On to “MSERDAIRAFSHMLETIFVRMRAEGTGSQTDAMQRWLDLYNVGSLPIDKKSYKALRLMDRETTDQQKEDATCAICLDNLQNNVDIPEDHVIKEELKIDPTTFGTTVIVMPCKHRFHYFCLTLWLEAQQTCPTCRQKVKTDKEVEEEERQRNLEELHDSMYG”, for which the “soluble on expression in E. coli” value is “not soluble”.

As to “MSERVKVAILGSGNIGTDLMYKLLKNPGHMELVAVVGIDPKSEGLARARALGLEASHEGIAYILERPEIKIVFDATSAKAHVRHAKLLREAGKIAIDLTPAARGPYVVPPVNLKEHLDKDNVNLITCGGQATIPLVYAVHRVAPVLYAEMVSTVASRSAGPGTRQNIDEFTFTTARGLEAIGGAKKGKAIIILNPAEPPILMTNTVRCIPEDEGFDREAVVASVRAMEREVQAYVPGYRLKADPVFERLPTPWGERTVVSMLLEVEGAGDYLPKYAGNLDIMTASARRVGEVFAQHLLGKPVEEVVA”, the “soluble on expression in E. coli” value was “soluble”.

For “MSESFAELFEESLKTLNLQAGSIITGVIVDIDYQARWVTVHAGLKSEALIPLEQFYNDAGELSINVGDEVHVALDSVEDGFGETKLSREKAKRAECWIVLEAAFAAEEVVKGVINGKVKGGFTVDVNGIRAFLPGSLVDVRPVRDTTHLEGKELEFKVIKLDQKRNNVVVSRRSVLEAENSAEREALLESLQEGQQVKGIVKNLTDYGAFVDLGGVDGLLHITDMAWKRIKHPSEIVNVGDEIDVKVLKYDRERNRVSLGLKQLGEDPWVAIKARYPESTRVTARVTNLTDYGCFAELEEGVEGLVHVSEMDWTNKNIHPSKVVQVGDEVEVMVLDIDEERRRISLGIKQCKSNPWEDFSGQFNKGDKISGTIKSITDFGIFIGLDGGIDGLVHLSDISWNEVGEEAVRRFKKGDELDTVILSVDPERERISLGIKQLESDPFSEYVQENDKGAIVKGVVKEVDAKGAIITLANDIEATLKASEISRDRIEDARNVLKEGEEVEAKIISVDRKSRVIQLSIKSKDVEDEKEAIQSLRDKPAASDIAAGPTTLGDLLRAQMEKQN”, the “soluble on expression in E. coli” value was “soluble”.

Turning to “MSETKERLCIYADFPYEFAVCAPRTDCPKREQCLRASAYDGVLARGLQKITVINPLIPTSEQGCKAFADNTPVLFAHGITHLYDELPHHAVQSLKHRLLTYFGKTTYYRIYRKERYITIQEQDYIRDSFVRAGFSSDLIRYDAMVYMYELQSAMVKSD”, the “soluble on expression in E. coli” value is “not soluble”.

Take “MSETLIIRFNVGGTPMATLKTTFPVDSIFHKWFVSRTKASPFTSDRDGAYFVDRDPFSFGVVLNYFRLRKAGQLWEACLPKDPDRLAMLTQEADFFLLPQLRDQAICMLQLCSNKNDSNYINEMLAKSTSCPQGFDKKEEEDEEDF”: the “soluble on expression in E. coli” value is on record as “not soluble”.

On to “MSETQNSTSQKAMDEDNKAASQTMPNTQDKNYEDELTQVALALVEDVINYAVKIVEEERNPLKNIKWMTHGEFTVEKGLKQIDEYFSKCVSKKCWAHGVEFVERKDLIHSFLYIYYVHWSISTADLPVARISAGTYFTMKVSKTKPPDAPIVVSYVGDHQALVHRPGMVRFRENWQKNLTDAKYSFMESFPFLFNRVLEHHHHHH”, for which the “soluble on expression in E. coli” value is “soluble”.

In the case of “MSEVTDLTVIEIKPEQAPVLYVAGGLDAYLEQIRQAVNEVPDLSTKKGRDRVASLAAQVSRSKTAIEKPGREYLKRLKEAVRPAEAEIKRFVDACDELRDATRRPLTEWEAEQERIKAEEAMNALHAEALEMNIKFDQELAAKFEADHEMALLMNKDFDRDREEQRRLAEQARREHEERIKREAAEQARRDAEAKHKAEIEAAARREAEEKARAELAERQRIEAEQRAEREKKETEERARREKEEAVAAERRRQEEAEAARLVEEQRKAEEEARRAADKEHRRTVNRRVYADLIAQGIPEEYAQKAVLAIAGGKVQDAHIKY”, the “soluble on expression in E. coli” value is reported as “not soluble”.

Turning to “MSEVVTDRLRMALEAMAQKDDDAAWEVIDGDDEINQLYLDLEDDCIDLLALQQPVAGDLRLIASSFKIITDLERIGDLAANLAEYTLDADRDMFPEVDVQAIGDRTIEMVTDAMAAYASADVEACYAIAERDDDIDERCRSASQTVIRDLIETEIDAATDDAEIEALMQDVSRLLLTVRDLERVGDHAVNISARTVYMVDNDDELIY”, the “soluble on expression in E. coli” value is recorded as “soluble”.

Consider “MSFDGFFLHHLTNELQEQIEKGRIQKVNQPFDHELVLTIRNNRRNYKLLLSAHPVFGRIQTTEANFQNPQNPNTFTMIMRKYLQGAVIETIQQIENDRILEIVVSNKNEIGDHIKATLVVEIMGKHSNIILIDKNEHKIIESIKHVGFSQNSYRTILPGSTYIAPPKTKAINPFDISDQTLFELLQTNDLSPKNLQQLLQGLGRDTALELSHCLKDNKLNDFRQFFSREYYPSLTEKSFSAVQFSSSHETFQSLGQLLDYYYQEKAEKDRIAQQASDLIHRVQSELEKNIKKLAKQQDELLATENAEEFRQKGELLTTYLSMVPNNQDVVVLDNYYTNQTIEISLDRALTPNQNAQRYFKKYQKLKEAVKHLKGIISDTENTITYLESVETSLNHASMEDINDIREELVETGFIKRRAHDKQHKRKK”, for which the “soluble on expression in E. coli” value is recorded as “not soluble”.

Consider “MSFDGFFLHHMTAELREQVLYGRIQKVNQPFERELVLTIRNNRQNYKLLLSAHPVFGRIQTTKAELPNPQNPNTYTMIMRKYLQGAVIEDIQQLENDRVLEISVSNKNEIGDSVKVTLVMEIMGKHSNIILIDKNENKIIESIKHVGFSQNSYRTILPGSTYIAPPKTDARNPFDISDENLFELLQTEDLSAKNLQKLFQGLGRDTANELSALLETDKLKNFRDFFNREVEPNLTTKAFSAVRFSDSQDQPEFETLSELLDYYYLDKAARDRVAQQASDLIHRVQNELEKNKKKLVKQEKELAATENAEEFRQKGELLTTFLSMVPNDKDSVELDNYYTGEKITIPLNVALTPNQNAQRYFKKYQKLKEAVKHLTGLIEETKQTINYLESVEFSLSQANMDEIEDIREELVQAGFMRRRSTDKRQKRKK”, for which the “soluble on expression in E. coli” value is listed as “not soluble”.

Take “MSFFDKVKGAINSGRDELTRQVGRFKNKKFMQGTVAVCARIAVSSDGVSSEEKQKMMGFLRSSEELKVFDTNEVIEFFNKLVSSFDFDVEIGKGETMKYILALKDQPEAAQLALRVGIAVAKSDGNFDQDEKLASREIAIALGFDPAEFGL”: the “soluble on expression in E. coli” value is “not soluble”.

On to “MSFKEIKAEDLQFNPFTRIGSDWMLITAGDEKKFNTMTASWGGAGVFWGKNVVTCYIRPQRYTKEFVDANDTFTLSFYGPECKNALNLCGTVSGRDRDKISEAGLTPYFTEGTAAFEEANLIFVCRKIYQDDMPYENFIAKENDAKYYPNKDYHTMYIAEIVKILVAE”, for which the “soluble on expression in E. coli” value was “not soluble”.

As to “MSFYSAHQLALALEGLQRALDEIGIYSDILEDALLIACNVPVAEKTSILNDFQRADTINYGGLAAAIRANLAPDVCERRITEFQKKYAHGTDDQRLELLSDESVWRLEAYEAFADAEPLSTLEKIRLGVIGGPIDSIDPNWPLRKIAPERFLNDRWSRAVHDPRRIRRKIIGHRLPYRTKAEPDVPYGIPKRARLAARENSGPVRAPPLLGGAHPGQFRARGPAGVGVVSRHTRQFGAARGVLRGPTGNRVVPLFPVQIRARPPAPSQTIIRVQETERVKLEPTDNSYEEQKPPLLEN”, the “soluble on expression in E. coli” value is on record as “not soluble”.
